The results in this text go back to PMC4283134, “Nup98 FG domains from diverse species spontaneously phase-separate into particles with nuclear pore-like permselectivity” (eLife, 2015).

In this assay the target is T1, Saccharomyces cerevisiae Importin β (Kap95p) (S. cerevisiae, UniProt Q06142 1-861).
T1 sequence (looked up): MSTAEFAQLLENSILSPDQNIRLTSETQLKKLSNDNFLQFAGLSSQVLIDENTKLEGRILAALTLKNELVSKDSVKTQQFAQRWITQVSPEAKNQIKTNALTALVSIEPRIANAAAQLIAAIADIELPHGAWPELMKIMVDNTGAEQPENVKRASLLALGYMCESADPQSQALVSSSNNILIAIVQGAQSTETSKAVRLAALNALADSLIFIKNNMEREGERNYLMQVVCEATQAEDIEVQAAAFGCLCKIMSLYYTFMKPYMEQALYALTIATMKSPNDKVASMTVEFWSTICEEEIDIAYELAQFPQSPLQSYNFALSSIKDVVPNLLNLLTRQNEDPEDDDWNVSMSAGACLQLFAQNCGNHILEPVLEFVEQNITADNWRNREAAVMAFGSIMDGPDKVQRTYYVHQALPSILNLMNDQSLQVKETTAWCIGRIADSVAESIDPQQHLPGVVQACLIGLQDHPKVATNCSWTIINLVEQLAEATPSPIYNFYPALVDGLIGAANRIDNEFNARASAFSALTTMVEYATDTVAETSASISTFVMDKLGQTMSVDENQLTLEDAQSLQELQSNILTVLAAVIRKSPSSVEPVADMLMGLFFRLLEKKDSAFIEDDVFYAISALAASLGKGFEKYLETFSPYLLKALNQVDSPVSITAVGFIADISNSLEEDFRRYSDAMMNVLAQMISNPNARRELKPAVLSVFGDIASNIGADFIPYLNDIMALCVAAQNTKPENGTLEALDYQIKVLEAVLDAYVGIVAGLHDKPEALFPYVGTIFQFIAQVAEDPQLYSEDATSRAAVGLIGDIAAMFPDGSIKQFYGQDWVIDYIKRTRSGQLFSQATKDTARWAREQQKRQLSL
Description: NTR⋅cargo complex formed from purified proteins, followed by the fluorescent cargo's entry into FG particles (confocal microscopy); 1 µM complex (referring to substrate monomers) added to FG particles; no separate test of complex formation is described. The following applies: both partners purified.

B1: Atto488-labelled IBB domain of S. cerevisiae Srp1p (domain or fragment)
chain: DNGTDSSTSKFVPEYRRTNFKNKGRFSADELRRRRDTQQVELRKAKRDEALAKRRNFIPPTDC
modifications: also: Atto488 label, position not given here
notes: IBB domain of Srp1p (importin α), S. cerevisiae, residues 2-63; C-terminal cysteine of the construct; The label probably sits on the C-terminal cysteine; also called ScIBB; IBB-Atto488; source: E. coli (BLR or NEB Express), purified (native Ni(II) chelate chromatography, tag removed); not shown: His14, N-terminal, cleaved; ZZ, N-terminal, cleaved; brNEDD8, N-terminal, cleaved
Regarding B1, the binding result is “binds”.
